Experimental findings from the NTF2 design screens of Basanta et al. (2020) are described below.

The nature of the data set: protease stability score; higher = more stable; yeast display proteolysis, trypsin and chymotrypsin.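 Also: relative to predicted unfolded state with 0 unfolded-like and 1 meaning tenfold more protease.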
For the sequence “DEEERDAKEARDLLERSMDTGNEDLWKELLDPNMIIHIGDKEIHGMKEWIEFHKERGAETRVEFKDMRMQGNKLILRLNLKVHFDGQTYEHEVTYIVSKVDGVWLVKYIHIH”, the protease stability score was determined as 0.981.
In turn, “DEEERDARRVYEHLIENWETGNFDRVLELFDPHVKLIFNGQEFIGRDDVSKEINRIDHEHIDDFRLHSIRIVDGRIEIDGRIRFTLHVNGKTVHFDRKLILIMRKVDGRWIITSLHIR” displayed a protease stability score of 2.09.
Then “DEEERDIKIAIEFWIETWLTGDEEKEEELLDPNVRLLINGKELHGRERVVKFLKRHYHRVDHSRIDIRRMHVVDGQVHVETELRVHFDGRELRFDIILHFRKFNGRWEITKIELR”, with 2; and “DEEERDISRWLDHLIESLETGDEDSLQHLLDPHVRVVVNGKDHHGWKALTKMLRQLRVNRIRIRDFEIIGDKIEVDIRMHVRVGDKHYVFNVDLVARKIDGRWIMHNITIH”, with 2.19; and “DEEERDLQQFIEEWWKTLVTGDEHLIERYLDPHVRMDWNGRELHGREAIADTIKKYVDEIRLEVRINHVRFQGDKVDIDGEIVERQGDKTRHLNFELEIIVVNGRAQEIRVRLR”, with 1.48.
Then “DEEERDMKHSSERLLRTWVTGDEDLLRTLADPDARHHLEVDGVHLHLHGMEHFSKWTTDLIEKLGIKHFDMKDLDVQGDKIHVHSTFHYGDKTFEVRLIVVKIDGKWLLSHSSFIVR”, with 0.299.
Then “DEEERDMKIAEEVFLHAMHTGDWKKFFELMDPHVKVHIDGVDLHGREEASKIWKERIDKVKNMTFDVKHSHRQGNKVTLHTELHVNGKTTHLIVVLSKVNGRWTLEEMSEE”, with 1.21.
Turning to “DEEERDSKRALELMIHWVETGNEERLSRLIDPHARLEIGDKHHHGREEFEKWFRRIDYLQYYTVRHIELQGDKIEVKVELTFIIDGQEVHTETRVIAIKFDGRWRLTSMEIN”, the protease stability score was 1.54.
In turn, “DEEERDSRIALEIWLHNVRTGDEKSERDNLDPHVRYIVDGRDYIGREDFLHMMSQIRIEEIRIKRFSSYNGRIHMDVHSRVTYNGVDRDIDENLHSTKYDGRWSIHYIEFR” gave a protease stability score of 1.01.
The sequence “DEEEREARDAVHRFDKDVVTGDEDRLRELMDPNVKLDIGDKEIIGREYMVSFWRELVKHIRIHSITIKRVEVYDGRIHVHQEVTLNIDGQHVTIKSHTIALKVNGKWTWTRFSMT” came in with a protease stability score of 1.06.
In turn, “DEEERELKHFLKEFNRAWRTGDEDEIRHLLDPHVRILFNGVHVIGMEEIEKFWRHLRVRVTRITVHRVDLQGDKLRVDTEQDLVFLIGDFENKHTHHTVIFILKINGRWIIESIVIV” had a protease stability score of 1.45.
On to “DEEERERKHIAEEFAHELETGDEERFVELADPNVRSDINGKQYHGRDRFRDWQEQWHEKVKNLRFEIERWRVIGDFVRIDVRIRIDGRRHNVEIIQVVVNGRITFLEIRVK”, for which the protease stability score turned out to be 0.799.
In the case of “DEEERFAEEAVEIIIRDWMTGDEELLHRNADPHMRIEVGDKTIHGMENFVKFLLEIRMKDSRLRVEDVKHYNGKLHLTFKSEVDGRVNGRRKTLTFDIKMIIEKVDGRWILKTIHIV”, the protease stability score came out at 1.89.
The sequence “DEEERFSEEALRRIWHALETGDERIQEDLADPNVRIDVGEKSYHGREKWSEMIRHMRLHDIKIHHVIVINGRMRFHGRMDGNIDGKRIDTEVEIHFEKVDGKWLVRKIRIH” showed a protease stability score of 2.25.
Then “DEEERHMKKLLDELLRAWVTGDESRLSELLDPNARSIVNGKSSHGREESEKIVRWAGVKHFNEDDTKLINGVVVVKGTMEVDGVTWEVDIRNFIFDGRVKEVRIIIR”, with 1.19; and “DEEERHTHEWFKELLHNLQTGDEDRFRQMADPNVQILVDGVEYIGREHAAHWMIIHIRHLRIEHEHDEEIRVFDGRIDVRHIRVGSYGDKRTDTRVHIDVNIIDGRIKFLRIHYS”, with 0.869; and “DEEERHTREMADWFITLFLTGNEEIMMELADPNMRLEHISEDEHYEYHGMHDVSRWLHELLLKFKNIRVRLRRIRIQGDYVIIHQDLNYNGKRVHVIIIVHIFDGRIKSLRFEFR”, with 1.67.
The sequence “DEEERHVQTLYEIFLKLEITGNEHAIKRLLDPHTRLHINGREHHGREEVVEAVRFWLTEWRIHHFKIHNREVQGDKMYMDTRLEVEFNGVNEEVHMIIIMQKIDGRWILRRIEIE” yielded a protease stability score of 2.25.
Take “DEEERHVRELLQRLINALDTGDWKTIHELFDPHARMEINGQHYHGRETINDKLKEMRVSVHDWEQKHIDTFEGHAVVHTHVHIVYIVNGVKHINDTREMIVFTKINGRWVIESRHVK”: the protease stability score was determined as 0.563.
